# Measured values as given in PMC9519967.
# Molecular target: His-tagged Grb3-3 SH2 domain and C-terminal SH3 domain (SH2Δ40CSH3) (human) (UniProt P62993)
# Test: MST
row,Substance,Kd
1,Sos-C-Tail-6 truncated peptide (without GST) (from UniProt Q07889),145 µM
2,Sos-C-Tail-8 truncated peptide (without GST) (from UniProt Q07889),297 µM
